Results on two substances are retold here after publication PMC6292511.

For assay [1], the target named is DMA-1::RFP (C. elegans). Put plainly: single molecule pull-down.
In assay [2] the target is DMA-1::GFPnovo2 (C. elegans). Put plainly: FRET or BRET.

In assay [1], HPO-30::GFP (natural protein) returned a percent of DMA-1::RFP speckles co-localized with HPO-30::GFP of 56.1%.
With HPO-30::mCherry (natural protein), the fraction of DMA-1::GFPnovo2 bound to HPO-30::mCherry in assay [2] is 30%.
